Key:
[1] = Aggregation by size exclusion chromatography HPLC (SEC-HPLC); assay type: physicochemical; settings: SEC-HPLC of DAR10 dual-payload antibody drug conjugates
[2] = test system: human triple-negative breast cancer MDA-MB-231 cells; test: Cytotoxicity assay (CellTiter-Glo 2.0), MDA-MB-231; assay type: cell-based; settings: for cytotoxicity against MDA-MB-231: atezolizumab conjugates, 0.01-500 nM for 6 days; for cancer cells killed compared with atezolizumab: MDA-MB-231, 6 days, FIG. 6B
Description: Each condition was performed in triplicate. On the harvesting day, the number of viable cells in each well were measured according to the CellTiter-Glo™ 2.0 Assay process.

[3] = target: His-tagged human PDL1 recombinant protein (Homo sapiens, UniProt Q9NZQ7); test: Binding affinity ELISA on plates coated with PDL1; settings: for EC50: N = 3; for EC50 of the conjugate relative to EC50 of atezolizumab: PDL1 binding; for PDL1 binding signal compared with atezolizumab: among the concentration range, signal at 450 nm
His-tagged human PDL1 recombinant protein, sequence (Q9NZQ7 19-290): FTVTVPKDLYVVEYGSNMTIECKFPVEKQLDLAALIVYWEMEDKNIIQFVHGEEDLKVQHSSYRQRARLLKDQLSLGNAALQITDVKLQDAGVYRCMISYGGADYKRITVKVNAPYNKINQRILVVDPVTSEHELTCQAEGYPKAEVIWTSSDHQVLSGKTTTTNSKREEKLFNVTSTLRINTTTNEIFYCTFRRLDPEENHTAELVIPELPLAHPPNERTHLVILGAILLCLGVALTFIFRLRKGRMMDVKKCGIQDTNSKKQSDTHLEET
Description: The blocked His-tagged human PDL1 recombinant protein-coated white plate was then incubated with atezolizumab, atezolizumab-govitecan (DAR10), or the isotype control antibody at different concentrations at 37° C. for 1 hour. The unbound atezolizumab, atezolizumab-govitecan (DAR10), or the isotype control antibody was washed away with PBST.
The blocked His-tagged human PDL1 recombinant protein-coated white plate was then incubated with atezolizumab or atezolizumab-deruxtecan-vcMMAE (DAR 10) at different concentrations at 37° C. for 1 hour. The unbound atezolizumab or atezolizumab-deruxtecan-vcMMAE (DAR 10) was washed away with PBST.

Substance: atezolizumab-deruxtecan-vcMMAE (DAR 10): Atezolizumab with 8 deruxtecan on cysteines and 2 vcMMAE on light-chain lysines (DAR10)
- protein aggregation [1]: resistant to protein aggregation
- cytotoxicity against MDA-MB-231 [2]: better cytotoxicity
- EC50 ([3]; Embodiment 2-3, FIG. 9): 1.56 nM
- EC50 of the conjugate relative to EC50 of atezolizumab [3]: less than 2 times
- PDL1 binding signal compared with atezolizumab [3]: no significant difference of signal detection

Substance: atezolizumab-govitecan (DAR8): Atezolizumab with 8 govitecan conjugated to cysteines by procedure (A) only (DAR8)
- cancer cells killed compared with atezolizumab [2]: 25%

Substance: atezolizumab-govitecan (DAR10): Atezolizumab with 8 govitecan on light and heavy chain cysteines and 2 govitecan on light-chain lysines (DAR10)
- protein aggregation [1]: resistant to protein aggregation
- cancer cells killed compared with atezolizumab [2]: 50%
- cytotoxicity against MDA-MB-231 [2]: better cytotoxicity
- cytotoxicity against MDA-MB-231 ([2]; listed as PDP-PDL1 mab-govitecan): exhibits cytotoxicity
- EC50 ([3]; Embodiment 1-3, FIG. 5): 0.75 nM
- EC50 of the conjugate relative to EC50 of atezolizumab [3]: less than 2 times
- PDL1 binding signal compared with atezolizumab [3]: no significant difference of signal detection

Substance: atezolizumab: commercially available anti-PDL1 IgG1 antibody (DAR0) [reference compound]
- EC50 ([3]; Embodiment 1-3, FIG. 5): 0.55 nM
- EC50 ([3]; Embodiment 2-3, FIG. 9): 1.4 nM
